Experimental findings from publication PMC8310559 are described below.

In the assay the target is ectodomain of SARS-CoV-2 S protein (a.a. 1-1208 (SARS-CoV-2) (UniProt P0DTC2)). The assay can be described thus: SPR. (In general: SPR reads the build-up and loss of mass on a sensor chip optically.)

The term Kd denotes the constant that tells how readily two partners part at equilibrium. A higher Kd goes with a looser complex. The substance CR3022 Fab had a Kd of 45.4 nM.
On to CR3022 IgG (antibody), for which the Kd was 0.21 nM.
CR3022 scFv VHVL: the Kd stood at 20.1 nM.
Regarding CR3022 scFv VLVH, the Kd worked out at 27.8 nM.
